Patent publication US20190241669A1 (published 2019)
Residue numbers refer to the chain shown, from its start. Numbers in names are those of the source.

B1: P5AC1-V1 BCMA specific CAR (protein)
chain: EVQLLESGGGLVQPGGSLRLSCAASGFTFSSYAMNWVRQAPGKGLEWVSAILSSGGSTYYADSVKGRFTISRDNSKNTLYLQMNSLRAEDTAVYYCARYWPMDIWGQGTLVTVSSGGGGSGGGGSGGGGSEIVLTQSPGTLSLSPGERATLSCRGGQSVSSSYLAWYQQKPGQAPRLLMYDASIRATGIPDRFSGSGSGTDFTLTISRLEPEDFAVYYCQQYQSWPLTFGQGTKVEIKGLAVSTISSFFPPGYQIYIWAPLAGTCGVLLLSLVITLYCKRGRKKLLYIFKQPFMRPVQTTQEEDGCSCRFPEEEEGGCELRVKFSRSADAPAYQQGQNQLYNELNLGRREEYDVLDKRRGRDPEMGGKPRRKNPQEGLYNELQKDKMAEAYSEIGMKGERRRGKGHDGLYQGLSTATKDTYDALHMQALPPR
B2: PC1C12-V1 BCMA specific CAR (protein)
chain: EVQLLESGGGLVQPGGSLRLSCAASGFTFSSYPMSWVRQAPGKGLEWVSAIGGSGGWSYYADSVKGRFTISRDNSKNTLYLQMNSLRAEDTAVYYCARYWPMDSWGQGTLVTVSSGGGGSGGGGSGGGGSEIVLTQSPGTLSLSPGERATLSCWLSQSVSSTYLAWYQQKPGQAPRLLIYDASSRAPGIPDRFSGSGSGTDFTLTISRLEPEDFAVYYCQQYSEWPLTFGQGTKVEIKGLAVSTISSFFPPGYQIYIWAPLAGTCGVLLLSLVITLYCKRGRKKLLYIFKQPFMRPVQTTQEEDGCSCRFPEEEEGGCELRVKFSRSADAPAYQQGQNQLYNELNLGRREEYDVLDKRRGRDPEMGGKPRRKNPQEGLYNELQKDKMAEAYSEIGMKGERRRGKGHDGLYQGLSTATKDTYDALHMQALPPR
B3: COM22-V1 BCMA specific CAR (protein)
chain: EVQLLESGGGLVQPGGSLRLSCAASGFTFSSYAMNWVRQAPGKGLEWVSAISDSGGSRWYADSVKGRFTISRDNSKNTLYLQMNSLRAEDTAVYYCTRYWPMDIWGQGTLVTVSSGGGGSGGGGSGGGGSEIVLTQSPGTLSLSPGERATLSCRASVRVSSTYLAWYQQKPGQAPRLLMYDASIRATGIPDRFSGSGSGTDFTLTISRLEPEDFAVYYCQQYMKWPLTFGQGTKVEIKGLAVSTISSFFPPGYQIYIWAPLAGTCGVLLLSLVITLYCKRGRKKLLYIFKQPFMRPVQTTQEEDGCSCRFPEEEEGGCELRVKFSRSADAPAYQQGQNQLYNELNLGRREEYDVLDKRRGRDPEMGGKPRRKNPQEGLYNELQKDKMAEAYSEIGMKGERRRGKGHDGLYQGLSTATKDTYDALHMQALPPR
B4: P5A-V1 BCMA specific CAR (protein)
chain: B1 chain with L52S, S53D, G155A, G156S, Q223G
B5: L3.PY/L1.PH/H3.TAQ (antibody, V domains shown)
VH: EVQLLESGGGLVQPGGSLRLSCAASGFTFGSYAMTWVRQAPGKGLEWVSAISGSGGNTFYADSVKGRFTISRDNSKNTLYLQMNSLRAEDTAVYYCTRVSPIAAQMDYWGQGTLVTVSS
VL: EIVLTQSPGTLSLSPGERATLSCRASQSVSPHYLAWYQQKPGQAPRLLIYGASSRATGIPDRFSGSGSGTDFTLTISRLEPEDFAVYYCQHYPYPPSFTFGQGTKVEIK
notes: IgG
B6: L1.GDF/L3.KW/H3.AP (antibody, V domains shown)
VH: B5 VH with T97A, Q105P
VL: B5 VL with S30G, P31D, H32F, Q90K, P93G, Y94W
B7: L1.LGF/L3.PY/H3.AP (antibody, V domains shown)
VH: B5 VH with T97A, Q105P
VL: B5 VL with V29L, S30G, P31S, H32F
B8: L1.LGF/L3.KW/H3.AP (antibody, V domains shown)
VH: B5 VH with T97A, Q105P
VL: B5 VL with V29L, S30G, P31S, H32F, Q90K, P93G, Y94W
B9: L1.GDF/L3.NY/H3.AP (antibody, V domains shown)
VH: B5 VH with T97A, Q105P
VL: B5 VL with S30G, P31D, H32F, P93N
B10: L1.LGF/L3.NY/H3.AP (antibody, V domains shown)
VH: B5 VH with T97A, Q105P
VL: B5 VL with V29L, S30G, P31S, H32F, P93N
B11: L3.PY/L3.KF/H2.LT (antibody, V domains shown)
VH: B5 VH with G53L, S54T, T97A, A104S, Q105G
VL: B5 VL with P31S, H32S, Q90K, H91F
notes: IgG
B12: L3.PY/L3.KF/H2.DY (antibody, V domains shown)
VH: B5 VH with S52D, G53Y, T97A, A104S, Q105G
VL: B5 VL with P31S, H32S, Q90K, H91F
notes: IgG
B13: L3.PY/L3.KY/H2.QR (antibody, V domains shown)
VH: B5 VH with S63Q, V64R, T97A, A104S, Q105G
VL: B5 VL with P31S, H32S, Q90K, H91Y
notes: IgG
B14: L3.PY/L3.KF/H3.TAQ (antibody, V domains shown)
VH: B5 VH
VL: B5 VL with P31S, H32S, Q90K, H91F
notes: IgG
B15: L3.PY/L3.KY/H2.HA (antibody, V domains shown)
VH: B5 VH with G53H, S54A, T97A, A104S, Q105G
VL: B5 VL with P31S, H32S, Q90K, H91Y
notes: IgG
B16: L3.PY/L3.KY/H3.YA (antibody, V domains shown)
VH: B5 VH with T97A, A103Y, Q105G
VL: B5 VL with P31S, H32S, Q90K, H91Y
notes: IgG
B17: L3.PY/L3.KF/H2.QL (antibody, V domains shown)
VH: B5 VH with S63Q, V64L, T97A, A104S, Q105G
VL: B5 VL with P31S, H32S, Q90K, H91F
notes: IgG
B18: L3.PY/L3.KY/H2.YQ (antibody, V domains shown)
VH: B5 VH with G53Y, S54Q, T97A, A104S, Q105G
VL: B5 VL with P31S, H32S, Q90K, H91Y
notes: IgG
B19: L3.PY/L3.KY/H2.QL (antibody, V domains shown)
VH: B5 VH with S63Q, V64L, T97A, A104S, Q105G
VL: B5 VL with P31S, H32S, Q90K, H91Y
notes: IgG
B20: L3.PY/L3.KF/H3.YA (antibody, V domains shown)
VH: B5 VH with T97A, A103Y, Q105G
VL: B5 VL with P31S, H32S, Q90K, H91F
notes: IgG
B21: L3.PY/L3.KY/H2.DY (antibody, V domains shown)
VH: B5 VH with S52D, G53Y, T97A, A104S, Q105G
VL: B5 VL with P31S, H32S, Q90K, H91Y
notes: IgG
B22: L3.PY/L3.KF/H2.YQ (antibody, V domains shown)
VH: B5 VH with G53Y, S54Q, T97A, A104S, Q105G
VL: B5 VL with P31S, H32S, Q90K, H91F
notes: IgG
B23: L3.PY/L3.KF/H3.AE (antibody, V domains shown)
VH: B5 VH with T97A, Q105E
VL: B5 VL with P31S, H32S, Q90K, H91F
notes: IgG
B24: L3.PY/L3.KY/H3.TAQ (antibody, V domains shown)
VH: B5 VH
VL: B5 VL with P31S, H32S, Q90K, H91Y
notes: IgG
B25: L3.PY/L3.KY/H2.LT (antibody, V domains shown)
VH: B5 VH with G53L, S54T, T97A, A104S, Q105G
VL: B5 VL with P31S, H32S, Q90K, H91Y
notes: IgG

Assays:
[1] = biological target: human BCMA (B-cell maturation antigen) (human) (UniProt Q02223); assay: cell-based or functional assay
Chain of human BCMA (B-cell maturation antigen) (human) (Q02223 other isoform, or with tags, fused parts or gaps): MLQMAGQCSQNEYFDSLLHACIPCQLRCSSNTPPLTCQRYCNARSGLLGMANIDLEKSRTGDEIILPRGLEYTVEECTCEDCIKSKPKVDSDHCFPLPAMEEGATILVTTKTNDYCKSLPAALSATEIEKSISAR

cynomolgus monkey BCMA = biological target: T1, cynomolgus monkey BCMA (cynomolgus monkey, UniProt A0A2K5UD97 1-53); assay: SPR, IgG on chip, cyBCMA analyte, 37C
T1 construct: Soluble analyte in SPR; construct not described; also called cyBCMA; Cyno BCMA
T1 sequence (A0A2K5UD97 entry or part of it): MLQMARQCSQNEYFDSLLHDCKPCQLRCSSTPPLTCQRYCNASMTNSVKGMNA

Human BCMA (human) [2] = biological target: Human BCMA (human) (UniProt Q02223); assay: SPR, IgG immobilised, huBCMA analyte, 37 C
Human BCMA (human) [3] = biological target: Human BCMA (human) (UniProt Q02223); assay: SPR, IgG immobilised, huBCMA analyte, 25 C

Binder	% CD107a+ (in CD8+) (degranulation, CAR-T cells with MM1S cells, Donor 2) [1] [%]	MFI CD107a+ (degranulation, CAR-T cells with MM1S cells, Donor 2) [1] [MFI]	% CD107a+ (in CD8+) (degranulation, CAR-T cells with MM1S cells, Donor 3) [1] [%]	MFI CD107a+ (degranulation, CAR-T cells with MM1S cells, Donor 3) [1] [MFI]	Kd (cynomolgus monkey BCMA) [nM]	T½ (cynomolgus monkey BCMA) [min]	koff (cynomolgus monkey BCMA) [s⁻¹]	kon (cynomolgus monkey BCMA) [M⁻¹ s⁻¹]	Kd (Human BCMA (human) [2]) [nM]	T½ (Human BCMA (human) [2]) [min]	koff (Human BCMA (human) [2]) [s⁻¹]	kon (Human BCMA (human) [2]) [M⁻¹ s⁻¹]	Kd (Human BCMA (human) [3]) [nM]	T½ (Human BCMA (human) [3]) [min]	koff (Human BCMA (human) [3]) [s⁻¹]	kon (Human BCMA (human) [3]) [M⁻¹ s⁻¹]
B1	68.6	2190	–	–	–	–	–	–	–	–	–	–	–	–	–	–
B2	–	–	68.2	1960	–	–	–	–	–	–	–	–	–	–	–	–
B3	–	–	76.1	2220	–	–	–	–	–	–	–	–	–	–	–	–
B4	77.6	2670	–	–	–	–	–	–	–	–	–	–	–	–	–	–
B5	–	–	–	–	1.28	3.61	0.0032	2.51e+06	0.59	5.43	0.00213	3.58e+06	–	–	–	–
B6	–	–	–	–	–	–	–	–	–	–	–	–	3.93	2.51	0.00461	1.17e+06
B7	–	–	–	–	–	–	–	–	–	–	–	–	2.12	11.9	0.000969	457000
B8	–	–	–	–	–	–	–	–	–	–	–	–	2.44	5.1	0.00227	928000
B9	–	–	–	–	–	–	–	–	–	–	–	–	1	8.21	0.00141	1.41e+06
B10	–	–	–	–	–	–	–	–	–	–	–	–	0.57	21.7	0.000533	936000
B11	–	–	–	–	2.16	2.8	0.00413	1.91e+06	0.69	6.05	0.00191	2.75e+06	–	–	–	–
B12	–	–	–	–	1.77	3.14	0.00368	2.08e+06	0.67	6.35	0.00182	2.74e+06	–	–	–	–
B13	–	–	–	–	3.78	1.49	0.00774	2.05e+06	0.34	11.7	0.00099	2.95e+06	–	–	–	–
B14	–	–	–	–	0.95	6.05	0.00191	2.01e+06	0.58	7.12	0.00162	2.82e+06	–	–	–	–
B15	–	–	–	–	1.4	3.63	0.00318	2.28e+06	0.49	7.1	0.00163	3.29e+06	–	–	–	–
B16	–	–	–	–	2.33	2.7	0.00428	1.84e+06	0.28	12.7	0.000912	3.3e+06	–	–	–	–
B17	–	–	–	–	2.18	3.73	0.0031	1.42e+06	0.6	9.26	0.00125	2.07e+06	–	–	–	–
B18	–	–	–	–	2.04	4.47	0.00258	1.27e+06	0.77	7.02	0.00165	2.14e+06	–	–	–	–
B19	–	–	–	–	1.49	2.83	0.00409	2.75e+06	0.57	5.56	0.00208	3.65e+06	–	–	–	–
B20	–	–	–	–	3.78	1.45	0.00796	2.1e+06	0.47	7.85	0.00147	3.12e+06	–	–	–	–
B21	–	–	–	–	1.24	4.75	0.00243	1.96e+06	0.2	18	0.000642	3.19e+06	–	–	–	–
B22	–	–	–	–	3.55	2.3	0.00501	1.41e+06	1.14	5.18	0.00223	1.96e+06	–	–	–	–
B23	–	–	–	–	3.05	2.05	0.00564	1.85e+06	0.51	7.44	0.00155	3.07e+06	–	–	–	–
B24	–	–	–	–	1.06	6.03	0.00192	1.81e+06	0.23	17.8	0.000649	2.79e+06	–	–	–	–
B25	–	–	–	–	1.27	4.98	0.00232	1.82e+06	0.31	12.8	0.000906	2.92e+06	–	–	–	–
